The test has as its target isoform CBd of the basic phospholipase A2 (PLA2) subunit of crotoxin (Crotalus durissus terrificus). Put plainly: crystal structure.

Turning to “isoform CBd of the basic phospholipase A2 (PLA2) subunit of crotoxin (enzyme)”, the stoichiometry N was determined as 4.

One may read the stoichiometry N as the number of molecules, sites or subunits per partner or assembly.

(Values after article PMC7696373.)
